Results published in patent US20110118131A1 (published 2011).
Positions count from the first letter of the chain named. Names may count otherwise.

T1: Ep-CAM (UniProt P16422 24-265, limits assumed)
T1 sequence (looked up): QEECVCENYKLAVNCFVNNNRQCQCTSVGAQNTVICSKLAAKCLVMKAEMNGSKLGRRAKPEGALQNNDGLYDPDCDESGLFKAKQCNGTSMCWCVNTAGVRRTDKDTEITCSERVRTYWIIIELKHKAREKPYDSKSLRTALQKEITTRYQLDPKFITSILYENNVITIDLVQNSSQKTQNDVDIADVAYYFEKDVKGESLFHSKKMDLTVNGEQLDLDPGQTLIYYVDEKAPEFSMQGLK

T2: Ep-CAM (UniProt P16422 24-265, limits assumed)
T2 construct: Immobilised on the Biacore chip; construct not described
T2 sequence (looked up): T1 sequence (looked up)

B1: ING-1 Fab, heavy chain Y32G (Fab, V domains shown)
VH: QIQLVQSGPELKKPGETVKISCKASGYTFTKGGMNWVKQAPGKGLKWMGWINTYTEEPTYGDDFKGRFAFSLETSASTANLQINNLKSEDTATYFCARFGSAVDYWGQGTSVTVSS
VL: DIVMTQAAFSNPVTLGTSGSISCRSSKSLLHSNGITYLYWYLQKPGQSPQLLIYQMSNLASGVPDRFSSSGSGTDFTLRISRVEAEDVGVYYCAQNLELPRTFGGGTKLEMKR
notes: Fab in periplasmic extract
B2: ING-1 Fab, heavy chain Y32L (Fab, V domains shown)
VH: B1 VH with G32L
VL: B1 VL
notes: Fab in periplasmic extract
B3: ING-1 Fab, heavy chain Y105P (Fab, V domains shown)
VH: B1 VH with G32Y, Y105P
VL: B1 VL
notes: Fab in periplasmic extract
B4: ING-1 Fab, heavy chain Y105A (Fab, V domains shown)
VH: B1 VH with G32Y, Y105A
VL: B1 VL
notes: Fab in periplasmic extract
B5: ING-1 Fab, heavy chain Y32I (Fab, V domains shown)
VH: B1 VH with G32I
VL: B1 VL
notes: Fab in periplasmic extract
B6: ING-1 Fab, heavy chain Y105G (Fab, V domains shown)
VH: B1 VH with G32Y, Y105G
VL: B1 VL
notes: Fab in periplasmic extract
B7: ING-1 Fab, heavy chain Y32P (Fab, V domains shown)
VH: B1 VH with G32P
VL: B1 VL
notes: Fab in periplasmic extract
B8: ING-1 Fab, light chain E98P (Fab, V domains shown)
VH: B1 VH with G32Y
VL: B1 VL with E98P
notes: Fab in periplasmic extract
B9: ING-1 Fab, light chain M56T (Fab, V domains shown)
VH: B1 VH with G32Y
VL: B1 VL with M56T
notes: Fab in periplasmic extract
B10: ING-1 Fab, light chain L29I (Fab, V domains shown)
VH: B1 VH with G32Y
VL: B1 VL with L29I
notes: Fab in periplasmic extract
B11: ING-1 Fab, light chain L99G (Fab, V domains shown)
VH: B1 VH with G32Y
VL: B1 VL with L99G
notes: Fab in periplasmic extract
B12: ING-1 Fab, light chain L97A (Fab, V domains shown)
VH: B1 VH with G32Y
VL: B1 VL with L97A
notes: Fab in periplasmic extract
B13: ING-1 Fab, light chain S57G (Fab, V domains shown)
VH: B1 VH with G32Y
VL: B1 VL with S57G
notes: Fab in periplasmic extract
B14: ING-1 Fab, light chain R101G (Fab, V domains shown)
VH: B1 VH with G32Y
VL: B1 VL with R101G
notes: Fab in periplasmic extract
B15: ING-1 Fab, light chain M56V (Fab, V domains shown)
VH: B1 VH with G32Y
VL: B1 VL with M56V
notes: Fab in periplasmic extract
B16: ING-1 Fab, light chain P100L (Fab, V domains shown)
VH: B1 VH with G32Y
VL: B1 VL with P100L
notes: Fab in periplasmic extract
B17: ING-1 Fab, light chain L99P (Fab, V domains shown)
VH: B1 VH with G32Y
VL: B1 VL with L99P
notes: Fab in periplasmic extract
B18: ING-1 Fab, light chain R101A (Fab, V domains shown)
VH: B1 VH with G32Y
VL: B1 VL with R101A
notes: Fab in periplasmic extract
B19: ING-1 Fab, light chain L97G (Fab, V domains shown)
VH: B1 VH with G32Y
VL: B1 VL with L97G
notes: Fab in periplasmic extract
B20: ING-1 Fab, light chain K27T (Fab, V domains shown)
VH: B1 VH with G32Y
VL: B1 VL with K27T
notes: Fab in periplasmic extract
B21: ING-1 Fab, light chain L29P (Fab, V domains shown)
VH: B1 VH with G32Y
VL: B1 VL with L29P
notes: Fab in periplasmic extract
B22: ING-1 Fab, light chain P100T (Fab, V domains shown)
VH: B1 VH with G32Y
VL: B1 VL with P100T
notes: Fab in periplasmic extract
B23: ING-1 Fab, light chain P100A (Fab, V domains shown)
VH: B1 VH with G32Y
VL: B1 VL with P100A
notes: Fab in periplasmic extract
B24: ING-1 Fab, light chain R101V (Fab, V domains shown)
VH: B1 VH with G32Y
VL: B1 VL with R101V
notes: Fab in periplasmic extract
B25: ING-1 Fab, light chain M56G (Fab, V domains shown)
VH: B1 VH with G32Y
VL: B1 VL with M56G
notes: Fab in periplasmic extract
B26: ING-1 Fab, light chain Y37T (Fab, V domains shown)
VH: B1 VH with G32Y
VL: B1 VL with Y37T
notes: Fab in periplasmic extract
B27: ING-1 Fab, light chain I35L (Fab, V domains shown)
VH: B1 VH with G32Y
VL: B1 VL with I35L
notes: Fab in periplasmic extract
B28: ING-1 Fab, light chain Y54I (Fab, V domains shown)
VH: B1 VH with G32Y
VL: B1 VL with Y54I
notes: Fab in periplasmic extract
B29: ING-1 Fab, light chain Y37I (Fab, V domains shown)
VH: B1 VH with G32Y
VL: B1 VL with Y37I
notes: Fab in periplasmic extract
B30: ING-1 Fab, light chain Y54A (Fab, V domains shown)
VH: B1 VH with G32Y
VL: B1 VL with Y54A
notes: Fab in periplasmic extract
B31: ING-1 Fab, light chain R101T (Fab, V domains shown)
VH: B1 VH with G32Y
VL: B1 VL with R101T
notes: Fab in periplasmic extract
B32: ING-1 Fab, light chain N33T (Fab, V domains shown)
VH: B1 VH with G32Y
VL: B1 VL with N33T
notes: Fab in periplasmic extract
B33: ING-1 Fab, light chain Y37V (Fab, V domains shown)
VH: B1 VH with G32Y
VL: B1 VL with Y37V
notes: Fab in periplasmic extract
B34: ING-1 Fab, light chain R101I (Fab, V domains shown)
VH: B1 VH with G32Y
VL: B1 VL with R101I
notes: Fab in periplasmic extract
B35: ING-1 Fab, light chain I35P (Fab, V domains shown)
VH: B1 VH with G32Y
VL: B1 VL with I35P
notes: Fab in periplasmic extract
B36: ING-1 Fab, light chain R101P (Fab, V domains shown)
VH: B1 VH with G32Y
VL: B1 VL with R101P
notes: Fab in periplasmic extract
B37: ING-1 Fab, light chain Y37A (Fab, V domains shown)
VH: B1 VH with G32Y
VL: B1 VL with Y37A
notes: Fab in periplasmic extract
B38: ING-1 Fab, light chain Q55G (Fab, V domains shown)
VH: B1 VH with G32Y
VL: B1 VL with Q55G
notes: Fab in periplasmic extract
B39: ING-1 Fab, light chain N33V (Fab, V domains shown)
VH: B1 VH with G32Y
VL: B1 VL with N33V
notes: Fab in periplasmic extract
B40: ING-1 Fab, light chain L99T (Fab, V domains shown)
VH: B1 VH with G32Y
VL: B1 VL with L99T
notes: Fab in periplasmic extract
B41: XPA23 heavy chain D106A (Fab, V domains shown)
VH: EVQLLESGGGLVQPGGSLRLSCAASGFTFSKYFMFWVRQAPGKGLEWVSVISPSGGMTRYADSVKGRFTISRDNSKNTLYLQMNSLRAEDTAVYYCARVGYGGNSAYWGQGTLVTVSS
VL: DIQMTQSPSSVSASVGDRLTIICRASQDINRWLAWYQQTPGNAPKLLIHSATSLQSGVPSRFSGSGSGTDFTLTINSLQPEDFATYYCQQADSFPLTFGGGTKVEIK
notes: Fab, periplasmic extract; also called C5A D106A

molecular target: T1, Ep-CAM; assay: Biacore, Fab periplasmic extract on immobilised Epcam

Row | Binder | fold difference in affinity vs original [fold] | binding result
1 | B1 | 0.02 | 
2 | B2 | 0.05 | 
3 | B3 |  | no binding
4 | B4 | 0.08 | 
5 | B5 | 0.03 | 
6 | B6 |  | no binding
7 | B7 | 0.01 | 

molecular target: T2, Ep-CAM; assay: Biacore, Fab periplasmic extract

Row | Binder | binding result | fold difference in affinity vs original ING-1 [fold]
8 | B8 | no binding | 
9 | B9 |  | 0.8
10 | B10 | no binding | 
11 | B11 |  | 0.02
12 | B12 |  | 0.5
13 | B13 | no binding | 
14 | B14 | no binding | 
15 | B15 | no binding | 
16 | B16 |  | 0.03
17 | B17 |  | 0.01
18 | B18 | no binding | 
19 | B19 | no binding | 
20 | B20 | no binding | 
21 | B21 | no binding | 
22 | B22 |  | 0.08
23 | B23 |  | 0.05
24 | B24 | no binding | 

Row | Binder | binding result | fold difference in affinity vs original ING-1 [fold]
25 | B25 |  | 0.8
26 | B26 | no binding | 
27 | B27 |  | 0.6
28 | B28 | no binding | 
29 | B29 |  | 0.9
30 | B30 |  | 0.08
31 | B31 | no binding | 
32 | B32 |  | 0.6
33 | B33 | no binding | 
34 | B34 | no binding | 
35 | B35 |  | 0.7
36 | B36 | no binding | 
37 | B37 |  | 0.04
38 | B38 |  | 0.7
39 | B39 | no binding | 
40 | B40 |  | 0.09

molecular target: T3, IL-1β (UniProt P01584 117-269); assay: Biacore, Fab periplasmic extract; -1 = no binding by the table's footnote
T3 construct: Antigen of XPA23

Row | Binder | binding result
41 | B41 | no binding
